The results in this text go back to patent US6820011B2, “Three-dimensional structure of complement receptor type 2 and uses thereof” (The Regents of the University of Colorado, priority 2001, dated 2004).

This test has as its target T1, CR2 (Homo sapiens, UniProt P20023, G20A).
T1 sequence (P20023 20-153 G20A): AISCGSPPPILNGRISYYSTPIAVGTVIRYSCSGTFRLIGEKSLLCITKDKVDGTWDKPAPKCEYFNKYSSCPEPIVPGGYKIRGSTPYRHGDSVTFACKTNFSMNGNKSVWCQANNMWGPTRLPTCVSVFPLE
The test can be described thus: native gel shift assay of the binding between CR2 and C3d wild type or mutants. Particulars: for interaction with CR2 (shift of C3d band to the complex form): 6% native polyacrylamide gel, same C3d concentration, increasing amount of CR2, compared with wild type C3d. The source says: Based on the complex structure, mutagenesis of C3d around the interface to disrupt CR2 binding was predicted to be difficult. This is because the interaction between CR2 and C3 d involves mostly main-chain H-bonding, and the side chain residues play relatively small roles in the binding. However, to confirm the accuracy of the CR2-C3d interaction seen in this co-crystal structure, two informative C3d mutants were constructed. In mutant 170 (mt170; SEQ ID NO:8), residue Asn170 was changed to Arg. Asn170 is located on H7 of C3d and is the only residue on C3d that more or less points directly toward CR2 in the interface (FIG. 3E). Asn170 also packs directly with Tyr81 of CR2 as well as forms an H-bond with CR2 (Lys100) through a water molecule (FIG. 3E).
Briefly, FIGS. 4A and 4B show a native gel shift assay of the binding between CR2 and C3d wild type (wt) or mutants (mt). […] The C3d band will be shifted to the upper part of the gel when it forms a complex with CR2. The C3d concentration (for both wt and mt) is the same throughout lanes 1-12. The CR2 added to each corresponding lanes for wt and mt C3d was also the same, e.g. same amount of CR2 was added to the C3d samples in lane 2, 6 and 10, or in lanes 4, 8 and 12. […] The same conclusion can be drawn by comparing the intensity of the bands of the complexes containing the wt, mt115 and mt170. FIG. 4B is a graphical representation showing the intensity changes of the complex bands (measured by densitometry) as CR2 concentration increases from lanes 2 to 4 (wt), or lanes 6 to 8 (mt115), or lanes 10 to 12 (mt170).
The result shown in this experiment is consistent with that predicted by the interaction interface seen in the complex structure. […] This is consistent with the complex structure in that all these three residues, even though located within the interface area, have their side chains pointing sideways and are not involved in the direct contact with CR2. The side chain of Glu117, however, participates in the Zn coordination. […] The coordinated Zn in the structure, therefore, could simply come from the crystallization buffer which contained ZnAcetate.
For orientation: In EMSA bound probe runs differently from free probe, usually more slowly.

Entries after “also recorded” stand apart in the source; their conditions may differ.

With “mt115: C3d mutant Gln105Ala, Leu116Ala, Glu117Ala”, the “interaction with CR2 (shift of C3d band to the complex form)” value is on record as “completely shifted to the complex form; also recorded: no obvious effect on CR2 binding”. The same measure, in the same setting: the same measure for “wt: wild type human C3d (SEQ ID NO:7), CR2 ligand [reference compound]”: “completely shifted to the complex form”. Take “mt170: C3d mutant, residue Asn170 changed to Arg (SEQ ID NO:8)”: the “interaction with CR2 (shift of C3d band to the complex form)” value is on record as “clearly less strong; also recorded: still contains an obvious C3d band”. Moreover, under “as CR2 concentration increases, FIG. 4B”, the “apparent affinity for CR2 from intensity of the complex bands (densitometry)” value is “less apparent affinity for CR2 than wt and mt115”.
